Measured values as given in patent US9993529B2, “Stable formulations of a hyaluronan-degrading enzyme” (Halozyme, Inc., priority 2011, dated 2018).

Assay: RP-HPLC insulin apparent solubility / percent recovery (content)
Details: for Solubility of Lispro: 7 days at 2-8° C.
Procedure: Apparent solubility was measured as the percent insulin recovery as compared to the initial formulations/conditions.
Samples were prepared by withdrawing 100 μL from each vial at every time point and centrifuging prior to loading. Samples were stored in an autosampler at 4° C. prior to use, and were considered stable for 3 days after preparation. All samples were tested in duplicate.
For insulin, 20 μL was injected for each HPLC run.
To determine the apparent solubility, the peak area of insulin/insulin analog main peak and desamido peak were integrated and combined together to calculate the percentage relative to the standards. […] The data were processed using Design-Expert® 7.0 (StatEase) and the “historical data” feature. Insulin percent purity was expressed as the percent of main insulin versus all insulin species.

Q: For “insulin Lispro: LysB28, ProB29 human insulin analog”, which “Solubility of Lispro” value (0.2% methylparaben + […] m-cresol, pH 6.6, NaCl 50 mM) is on record?
A: Its value is 42.0%.

Q: And the “Solubility of Lispro” value (0.2% methylparaben + […] m-cresol, pH 6.6, NaCl 80 mM)?
A: Its value is 28.2%.

Q: And the “Solubility of Lispro” value (0.2% methylparaben + […] m-cresol, pH 6.6, NaCl 110 mM)?
A: The value was 24.1%.

Q: What about the “Solubility of Lispro” value (0.2% methylparaben + […] m-cresol, pH 6.6, NaCl 140 mM) of the same substance?
A: The value was 25.9%.

Q: And the “Solubility of Lispro” value (0.2% methylparaben + […] m-cresol, pH 6.8, NaCl 50 mM)?
A: The value was 82.3%.

Q: And the “Solubility of Lispro” value (0.2% methylparaben + […] m-cresol, pH 6.8, NaCl 80 mM)?
A: Its value is 62.6%.

Q: What about the “Solubility of Lispro” value (0.2% methylparaben + […] m-cresol, pH 6.8, NaCl 110 mM) of the same substance?
A: Its value is 47.8%.

Q: What about the “Solubility of Lispro” value (0.2% methylparaben + […] m-cresol, pH 6.8, NaCl 140 mM) of the same substance?
A: The value was 42.0%.

Q: And the “Solubility of Lispro” value (0.2% methylparaben + […] m-cresol, pH 7.0, NaCl 50 mM)?
A: The value was 95.3%.

Q: What about the “Solubility of Lispro” value (0.2% methylparaben + […] m-cresol, pH 7.0, NaCl 80 mM) of the same substance?
A: Its value is 98.1%.

Q: And the “Solubility of Lispro” value (0.2% methylparaben + […] m-cresol, pH 7.0, NaCl 110 mM)?
A: Its value is 94.1%.

Q: And the “Solubility of Lispro” value (0.2% methylparaben + […] m-cresol, pH 7.0, NaCl 140 mM)?
A: Its value is 65.6%.

Q: And the “Solubility of Lispro” value (0.2% methylparaben + […] m-cresol, pH 7.2, NaCl 50 mM)?
A: Its value is 95.7%.

Q: And the “Solubility of Lispro” value (0.2% methylparaben + […] m-cresol, pH 7.2, NaCl 80 mM)?
A: Its value is 97.9%.

Q: And the “Solubility of Lispro” value (0.2% methylparaben + […] m-cresol, pH 7.2, NaCl 110 mM)?
A: Its value is 99.6%.

Q: What about the “Solubility of Lispro” value (0.2% methylparaben + […] m-cresol, pH 7.2, NaCl 140 mM) of the same substance?
A: Its value is 98.0%.

Q: And the “Solubility of Lispro” value (0.2% methylparaben + […] m-cresol, pH 7.4, NaCl 50 mM)?
A: Its value is 95.6%.

Q: And the “Solubility of Lispro” value (0.2% methylparaben + […] m-cresol, pH 7.4, NaCl 80 mM)?
A: The value was 98.2%.

Q: And the “Solubility of Lispro” value (0.2% methylparaben + […] m-cresol, pH 7.4, NaCl 110 mM)?
A: Its value is 99.9%.

Q: And the “Solubility of Lispro” value (0.2% methylparaben + […] m-cresol, pH 7.4, NaCl 140 mM)?
A: Its value is 98.5%.

Q: What about the “Solubility of Lispro” value (0.2% methylparaben + […] m-cresol, pH 7.6, NaCl 50 mM) of the same substance?
A: Its value is 95.7%.

Q: And the “Solubility of Lispro” value (0.2% methylparaben + […] m-cresol, pH 7.6, NaCl 80 mM)?
A: Its value is 98.3%.

Q: What about the “Solubility of Lispro” value (0.2% methylparaben + […] m-cresol, pH 7.6, NaCl 110 mM) of the same substance?
A: The value was 100.2%.

Q: What about the “Solubility of Lispro” value (0.2% methylparaben + […] m-cresol, pH 7.6, NaCl 140 mM) of the same substance?
A: The value was 98.8%.

Q: What about the “Solubility of Lispro” value (0.2% phenol + […] m-cresol, pH 6.6, NaCl 50 mM) of the same substance?
A: Its value is 52.8%.

Q: And the “Solubility of Lispro” value (0.2% phenol + […] m-cresol, pH 6.6, NaCl 80 mM)?
A: Its value is 32.8%.

Q: And the “Solubility of Lispro” value (0.2% phenol + […] m-cresol, pH 6.6, NaCl 110 mM)?
A: The value was 26.0%.

Q: What about the “Solubility of Lispro” value (0.2% phenol + […] m-cresol, pH 6.8, NaCl 50 mM) of the same substance?
A: The value was 91.4%.

Q: And the “Solubility of Lispro” value (0.2% phenol + […] m-cresol, pH 6.8, NaCl 80 mM)?
A: Its value is 65.1%.

Q: And the “Solubility of Lispro” value (0.2% phenol + […] m-cresol, pH 6.8, NaCl 110 mM)?
A: Its value is 44.9%.

Q: And the “Solubility of Lispro” value (0.2% phenol + […] m-cresol, pH 6.8, NaCl 140 mM)?
A: The value was 40.4%.

Q: And the “Solubility of Lispro” value (0.2% phenol + […] m-cresol, pH 7.0, NaCl 50 mM)?
A: Its value is 97.4%.

Q: And the “Solubility of Lispro” value (0.2% phenol + […] m-cresol, pH 7.0, NaCl 80 mM)?
A: The value was 95.5%.

Q: What about the “Solubility of Lispro” value (0.2% phenol + […] m-cresol, pH 7.0, NaCl 110 mM) of the same substance?
A: The value was 75.2%.

Q: What about the “Solubility of Lispro” value (0.2% phenol + […] m-cresol, pH 7.0, NaCl 140 mM) of the same substance?
A: Its value is 65.3%.

Q: And the “Solubility of Lispro” value (0.2% phenol + […] m-cresol, pH 7.2, NaCl 50 mM)?
A: Its value is 97.6%.

Q: What about the “Solubility of Lispro” value (0.2% phenol + […] m-cresol, pH 7.2, NaCl 80 mM) of the same substance?
A: The value was 97.4%.

Q: What about the “Solubility of Lispro” value (0.2% phenol + […] m-cresol, pH 7.2, NaCl 110 mM) of the same substance?
A: Its value is 95.2%.

Q: What about the “Solubility of Lispro” value (0.2% phenol + […] m-cresol, pH 7.2, NaCl 140 mM) of the same substance?
A: The value was 90.8%.

Q: What about the “Solubility of Lispro” value (0.2% phenol + […] m-cresol, pH 7.4, NaCl 50 mM) of the same substance?
A: Its value is 97.7%.

Q: What about the “Solubility of Lispro” value (0.2% phenol + […] m-cresol, pH 7.4, NaCl 80 mM) of the same substance?
A: The value was 97.6%.

Q: And the “Solubility of Lispro” value (0.2% phenol + […] m-cresol, pH 7.4, NaCl 110 mM)?
A: The value was 97.0%.

Q: And the “Solubility of Lispro” value (0.2% phenol + […] m-cresol, pH 7.4, NaCl 140 mM)?
A: Its value is 96.9%.

Q: What about the “Solubility of Lispro” value (0.2% phenol + […] m-cresol, pH 7.6, NaCl 50 mM) of the same substance?
A: Its value is 97.5%.

Q: What about the “Solubility of Lispro” value (0.2% phenol + […] m-cresol, pH 7.6, NaCl 80 mM) of the same substance?
A: Its value is 97.7%.

Q: And the “Solubility of Lispro” value (0.2% phenol + […] m-cresol, pH 7.6, NaCl 110 mM)?
A: Its value is 97.3%.

Q: What about the “Solubility of Lispro” value (0.2% phenol + […] m-cresol, pH 7.6, NaCl 140 mM) of the same substance?
A: The value was 96.8%.

Q: And the “Solubility (% of 120 U/mL)” value (2-8° C., pH 7.0, after 1 week at 80, 110 or 140 mM NaCl)?
A: The value was “below 65%”.

Q: And the “Solubility of Lispro” value ([…] phenol + […] m-cresol, pH 6.6, NaCl 50 mM)?
A: The value was 60.3%.

Q: What about the “Solubility of Lispro” value ([…] phenol + […] m-cresol, pH 6.6, NaCl 80 mM) of the same substance?
A: The value was 43.3%.

Q: And the “Solubility of Lispro” value ([…] phenol + […] m-cresol, pH 6.6, NaCl 110 mM)?
A: The value was 24.2%.

Q: What about the “Solubility of Lispro” value ([…] phenol + […] m-cresol, pH 6.6, NaCl 140 mM) of the same substance?
A: Its value is 27.7%.

Q: What about the “Solubility of Lispro” value ([…] phenol + […] m-cresol, pH 6.8, NaCl 50 mM) of the same substance?
A: The value was 93.6%.

Q: And the “Solubility of Lispro” value ([…] phenol + […] m-cresol, pH 6.8, NaCl 80 mM)?
A: Its value is 60.8%.

Q: And the “Solubility of Lispro” value ([…] phenol + […] m-cresol, pH 6.8, NaCl 110 mM)?
A: Its value is 44.9%.

Q: And the “Solubility of Lispro” value ([…] phenol + […] m-cresol, pH 6.8, NaCl 140 mM)?
A: The value was 35.9%.

Q: And the “Solubility of Lispro” value ([…] phenol + […] m-cresol, pH 7.0, NaCl 50 mM)?
A: The value was 98.7%.

Q: What about the “Solubility of Lispro” value ([…] phenol + […] m-cresol, pH 7.0, NaCl 80 mM) of the same substance?
A: The value was 96.4%.

Q: What about the “Solubility of Lispro” value ([…] phenol + […] m-cresol, pH 7.0, NaCl 110 mM) of the same substance?
A: Its value is 77.0%.

Q: And the “Solubility of Lispro” value ([…] phenol + […] m-cresol, pH 7.0, NaCl 140 mM)?
A: Its value is 61.2%.

Q: What about the “Solubility of Lispro” value ([…] phenol + […] m-cresol, pH 7.2, NaCl 50 mM) of the same substance?
A: Its value is 100.5%.

Q: And the “Solubility of Lispro” value ([…] phenol + […] m-cresol, pH 7.2, NaCl 80 mM)?
A: The value was 99.2%.

Q: And the “Solubility of Lispro” value ([…] phenol + […] m-cresol, pH 7.2, NaCl 110 mM)?
A: Its value is 97.3%.

Q: What about the “Solubility of Lispro” value ([…] phenol + […] m-cresol, pH 7.2, NaCl 140 mM) of the same substance?
A: Its value is 93.1%.

Q: What about the “Solubility of Lispro” value ([…] phenol + […] m-cresol, pH 7.4, NaCl 50 mM) of the same substance?
A: The value was 100.8%.

Q: What about the “Solubility of Lispro” value ([…] phenol + […] m-cresol, pH 7.4, NaCl 80 mM) of the same substance?
A: Its value is 101.8%.

Q: What about the “Solubility of Lispro” value ([…] phenol + […] m-cresol, pH 7.4, NaCl 110 mM) of the same substance?
A: The value was 100.7%.

Q: What about the “Solubility of Lispro” value ([…] phenol + […] m-cresol, pH 7.4, NaCl 140 mM) of the same substance?
A: The value was 98.4%.

Q: And the “Solubility of Lispro” value ([…] phenol + […] m-cresol, pH 7.6, NaCl 50 mM)?
A: Its value is 100.9%.

Q: What about the “Solubility of Lispro” value ([…] phenol + […] m-cresol, pH 7.6, NaCl 80 mM) of the same substance?
A: Its value is 102.1%.

Q: And the “Solubility of Lispro” value ([…] phenol + […] m-cresol, pH 7.6, NaCl 110 mM)?
A: Its value is 101.6%.

Q: What about the “Solubility of Lispro” value ([…] phenol + […] m-cresol, pH 7.6, NaCl 140 mM) of the same substance?
A: The value was 101.3%.
